Values of other authors as cited in US12194157B2, “Carrier for targeted delivery to a host” (Finncure Oy, priority 2020, dated 2025).

Target: ACE2 (Homo sapiens, UniProt Q9BYF1)
Details: simulation, ref [8]

Sequence of ACE2 (Q9BYF1 18-805): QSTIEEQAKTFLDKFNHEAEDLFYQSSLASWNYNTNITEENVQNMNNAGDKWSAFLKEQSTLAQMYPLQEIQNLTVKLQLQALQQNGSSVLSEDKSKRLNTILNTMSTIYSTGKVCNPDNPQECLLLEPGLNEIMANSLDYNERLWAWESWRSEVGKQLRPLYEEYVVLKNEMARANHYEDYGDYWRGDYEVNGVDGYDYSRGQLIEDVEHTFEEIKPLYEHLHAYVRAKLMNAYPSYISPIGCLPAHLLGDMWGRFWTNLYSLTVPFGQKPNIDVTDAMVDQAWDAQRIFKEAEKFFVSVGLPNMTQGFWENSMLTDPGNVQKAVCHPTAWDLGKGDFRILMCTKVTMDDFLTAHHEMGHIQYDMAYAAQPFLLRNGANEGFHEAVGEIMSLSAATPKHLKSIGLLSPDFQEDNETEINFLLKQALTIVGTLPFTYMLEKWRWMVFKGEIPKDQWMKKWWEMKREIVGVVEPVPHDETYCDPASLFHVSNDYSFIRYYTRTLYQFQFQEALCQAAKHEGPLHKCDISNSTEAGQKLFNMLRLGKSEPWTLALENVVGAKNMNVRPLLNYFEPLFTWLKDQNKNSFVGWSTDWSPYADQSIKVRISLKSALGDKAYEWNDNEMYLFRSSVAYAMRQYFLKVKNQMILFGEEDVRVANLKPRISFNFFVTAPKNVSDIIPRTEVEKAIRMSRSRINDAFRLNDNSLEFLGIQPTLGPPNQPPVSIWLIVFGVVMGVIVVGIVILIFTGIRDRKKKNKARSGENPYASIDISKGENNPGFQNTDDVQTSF

Substance | binding affinity towards the ACE2 receptor relative to YKYRYL
YKYNYI (Potential alternative synthetic hexapeptide variant) [alternative synthetic hexapeptide variant from simulation] | even stronger binding affinity
YKYNYL (Potential alternative synthetic hexapeptide variant) [alternative synthetic hexapeptide variant from simulation] | even stronger binding affinity
